Results taken from publication PMC10654033.

Molecular target: SpnA (S. pyogenes nuclease A), recombinant, residues Val25 to Leu876 (S. pyogenes) (UniProt Q9A0J7)
Experiment: SPR; Biacore T100; SpnA immobilized on a CM5 chip by amino coupling (7247 resonance units); IdeS injected at 10, 20, 40, 80 and 160 μM, 10 μl/min; 100 mM Hepes, 150 mM NaCl, 0.05% surfactant P20, pH 7.4; 1:1 Langmuir binding model

## IdeS (immunoglobulin G-degrading enzyme of Streptococcus pyogenes) (from UniProt Q7DAM2 1-339)
  Kd: 53.3 µM
